# In article PMC9546846:
# Tests used:
# N-cadherin = N-cadherin (UniProt P15116); details: cited from earlier work
# [1] = molecular target: ddFP-B3-inserted NCad (NCad-B3) (mouse) (UniProt P15116); assay: split reporter (BiFC, NanoBiT); dimerization-dependent fluorescent protein; HEK293T cells co-expressing both components (mCherry-NLS) co-cultured with cells expressing NCad without fluorescent protein (EBFP2-NLS); signal at R-R against B-R cell adhesion sites
# [2] = molecular target: ddFP-B1-inserted NCad (NCad-B1) (mouse) (UniProt P15116); assay: as above
# [3] = molecular target: ddFP-B3-inserted NCad (NCad-B3) (mouse) (UniProt P15116); assay: split reporter (BiFC, NanoBiT); dimerization-dependent fluorescent protein; time-lapse of HEK293T cells each expressing one component, from seeding for 120 min, then 10 mM EGTA for 120 min; washout of EGTA in a further experiment
# [4] = molecular target: ddFP-B1-inserted NCad (NCad-B1) (mouse) (UniProt P15116); assay: as above
# N-cadherin, sequence (P15116 160-724): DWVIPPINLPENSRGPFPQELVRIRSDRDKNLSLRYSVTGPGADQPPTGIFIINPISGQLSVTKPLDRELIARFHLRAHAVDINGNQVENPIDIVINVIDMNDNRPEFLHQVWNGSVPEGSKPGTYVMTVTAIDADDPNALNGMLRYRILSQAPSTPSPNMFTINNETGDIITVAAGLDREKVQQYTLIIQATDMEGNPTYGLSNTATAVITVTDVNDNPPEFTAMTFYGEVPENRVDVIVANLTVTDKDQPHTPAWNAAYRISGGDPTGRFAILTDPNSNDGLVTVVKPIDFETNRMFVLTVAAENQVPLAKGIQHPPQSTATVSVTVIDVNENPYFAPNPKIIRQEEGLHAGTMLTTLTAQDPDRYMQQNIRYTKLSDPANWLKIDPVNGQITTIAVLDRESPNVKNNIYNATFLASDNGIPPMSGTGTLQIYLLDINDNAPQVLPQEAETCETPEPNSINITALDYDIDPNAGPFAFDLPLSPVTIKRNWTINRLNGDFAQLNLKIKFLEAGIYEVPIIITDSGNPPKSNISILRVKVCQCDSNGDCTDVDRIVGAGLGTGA
contrast of signal between R-R and B-R cell adhesion sites [1],contrast of signal between R-R and B-R cell adhesion sites [2],time to 50% of the signal after addition of 10 mM EGTA [3] [min],time to 50% of the signal after addition of 10 mM EGTA [4] [min],Substance,Kd (N-cadherin) [µM]
,,,,N-cadherin (from UniProt P15116),25
7.72,5.31,50,50,ddGFP-A-inserted NCad (NCad-GA) (from UniProt P15116 26-311; P15116 312-906),
